Measurements reported in patent publication US20180355059A1 (PHARMAEXPLORER, published 2018).
Where a chain is given by its changes, count along the chain named. One block for each binder: values may come before it.

Columns and labels:
[1] = molecular target: T1, recombinant human PCSK9-His protein (Immunogen A) (human, UniProt Q8NBP7 31-692, limits assumed, biotinylated in the ELISA assays); experiment: SPR, Biacore;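 note: antibodies captured via immobilized anti-human Fc IgG on a CM5 chip, PCSK9 as analyte in HBS-EP+ buffer, 400 s dissociation, reference flow cell subtracted, 1:1 binding model fit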
T1 construct: also called hPCSK9-His; His-tagged hPCSK9; not shown: His tag

[2] = molecular target: T2, recombinant human PCSK9 protein, His-tagged (Immunogen A, hPCSK9-His) (human, UniProt Q8NBP7 31-692, limits assumed, biotin-labelled in the ELISA and blocking assays (Biotin labeling kit)); experiment: blocking ELISA, biotin-hPCSK9-His on coated LDLR ECD-His; antibody 8 nM
T2 construct: also called human PCSK9-His; recombinant hPCSK9-His; not shown: His tag

[3] = molecular target: T2, recombinant human PCSK9 protein, …; experiment: blocking ELISA, biotin-hPCSK9-His on coated LDLR ECD-His; antibody 0.06 nM
Experimental: (§1) Purified LDLR^ECD-His was diluted with PBS to a final concentration of 1.0 ug/ml, and 100 uL of diluted LDLR^ECD-His were added to each well of 96-well plate that was then sealed with plastic film and incubated at 4° C. overnight. The plate was washed twice with wash buffer [PBS+0.01% (v/v) Tween 20] and incubated with blocking buffer [PBS+0.01% (v/v) BSA+1% Tween20 (w/w)] at room temperature for 2 hours. […] The plate was washed three times with wash buffer [0.01% (v/v) Tween 20]. 100 uL HRP-conjugated streptavidin (Sigma) were then added to each well and incubated at 37° C. for 1 hour. The plate was then washed three times with wash buffer, and 100 uL TMB substrate were added to each well. After 15 minutes of incubation at room temperature, the reaction was stopped by adding 50 uL stop solution (0.1N HCl).

[4] = molecular target: T2, recombinant human PCSK9 protein, …; experiment: ELISA, biotin-hPCSK9-His on streptavidin plate; antibody 0.00067 nM
Experimental: (§2) The next day, the plates were washed twice with wash buffer [0.01% (v/v) Tween 20], then blocked with blocking buffer [0.01% (v/v) 0.1% BSA (w/w) Tween 20] at room temperature for 2 hours. […] Unbound PCSK9 proteins were removed by washing the plate three times with wash buffer [0.01% (v/v) Tween 20]. […] The plates were washed twice with wash buffer [0.01% (v/v) Tween 20], and 200 uL HRP-conjugated secondary antibody (Sigma) was added to each well and incubated for 2 hours at 37° C. After the plates were washed three times with wash buffer, 100 ul TMB substrate were added to each well and incubated for 30 minutes at room temperature. 100 ul stop solution (0.1N HCl) were added to each well to stop the reaction.

[5] = molecular target: T2, recombinant human PCSK9 protein, …; experiment: ELISA, biotin-hPCSK9-His on streptavidin plate; antibody 66.67 nM
Experimental: as §2

[6] = molecular target: T2, recombinant human PCSK9 protein, …; experiment: ELISA, biotin-hPCSK9-His on streptavidin plate; antibody 6.67 nM
Experimental: as §2

[7] = molecular target: T2, recombinant human PCSK9 protein, …; experiment: ELISA, biotin-hPCSK9-His on streptavidin plate; antibody 0.67 nM
Experimental: as §2

[8] = molecular target: T2, recombinant human PCSK9 protein, …; experiment: blocking ELISA, biotin-hPCSK9-His on coated LDLR ECD-His; antibody 200 nM
Experimental: as §1

[9] = molecular target: T2, recombinant human PCSK9 protein, …; experiment: blocking ELISA, biotin-hPCSK9-His on coated LDLR ECD-His; antibody 40 nM
Experimental: as §1

[10] = molecular target: T2, recombinant human PCSK9 protein, …; experiment: blocking ELISA, biotin-hPCSK9-His on coated LDLR ECD-His; antibody 0.32 nM
Experimental: as §1

[11] = molecular target: T2, recombinant human PCSK9 protein, …; experiment: ELISA, biotin-hPCSK9-His on streptavidin plate; antibody 0.067 nM
Experimental: as §2

[12] = molecular target: T2, recombinant human PCSK9 protein, …; experiment: blocking ELISA, biotin-hPCSK9-His on coated LDLR ECD-His; antibody 0.01 nM
Experimental: as §1

[13] = molecular target: T2, recombinant human PCSK9 protein, …; experiment: ELISA, biotin-hPCSK9-His on streptavidin plate; antibody 0 nM (blank)
Experimental: as §2

[14] = molecular target: T2, recombinant human PCSK9 protein, …; experiment: ELISA, biotin-hPCSK9-His on streptavidin plate; antibody 0.000067 nM
Experimental: as §2

[15] = molecular target: T2, recombinant human PCSK9 protein, …; experiment: ELISA, biotin-hPCSK9-His on streptavidin plate; antibody 0.0067 nM
Experimental: as §2

B1: AF-mab023_01 (antibody, V domains shown)
VH: EVQLVESGGGLVQPGGSLRLSCAASGITFSSYWMSWVRQAPGKGLEWVANIKQDGSEKYYVDSVKGRFTISRDIAKNSLYLQMNSLRAEDTAVYYCARDRGTYYYGIGSYNYYYYGMDVWGQGTTVTVSS
VL: not shown
Kd [1]: 360 pM | koff [1]: 0.000115 s⁻¹ | kon [1]: 320000 M⁻¹ s⁻¹

B3: AF-mab023_05 (antibody, V domains shown)
VH: B1 VH with Y105H, G106W, I107L
VL: not shown
Kd [1]: 207 pM | koff [1]: 6.31e-05 s⁻¹ | kon [1]: 305000 M⁻¹ s⁻¹

B4: AF-mab023_02 (antibody, V domains shown)
VH: B1 VH with G106W, I107L, S109T
VL: not shown
Kd [1]: 268 pM | koff [1]: 8.2e-05 s⁻¹ | kon [1]: 306000 M⁻¹ s⁻¹

B9: AF-mab023_11 (antibody, V domains shown)
VH: B1 VH with G106Q, I107E
VL: not shown
Kd [1]: 260 pM | koff [1]: 0.000144 s⁻¹ | kon [1]: 553000 M⁻¹ s⁻¹

B10: AF-mab023_06 (antibody, V domains shown)
VH: B1 VH with Y105F, G106Q, I107S
VL: not shown
Kd [1]: 225 pM | koff [1]: 6.59e-05 s⁻¹ | kon [1]: 293000 M⁻¹ s⁻¹

B12: AF-mab023_07 (antibody, V domains shown)
VH: B1 VH with G106Q, I107Q
VL: not shown
Kd [1]: 653 pM | koff [1]: 0.000214 s⁻¹ | kon [1]: 327000 M⁻¹ s⁻¹

B15: AF-mab023_04 (antibody, V domains shown)
VH: B1 VH with G106D, I107S, S109G
VL: not shown
Kd [1]: 409 pM | koff [1]: 0.000239 s⁻¹ | kon [1]: 584000 M⁻¹ s⁻¹

B16: AF-mab023_03 (antibody, V domains shown)
VH: B1 VH with G106A, I107S
VL: not shown
Kd [1]: 1240 pM | koff [1]: 0.00046 s⁻¹ | kon [1]: 370000 M⁻¹ s⁻¹

B17: AF-mab023_10 (antibody, V domains shown)
VH: B1 VH with G106D, I107S, S109R
VL: not shown
Kd [1]: 1050 pM | koff [1]: 0.000328 s⁻¹ | kon [1]: 313000 M⁻¹ s⁻¹

B18: AF-mab023_08 (antibody, V domains shown)
VH: B1 VH with Y105I, G106A, I107D
VL: not shown
Kd [1]: 443 pM | koff [1]: 0.000158 s⁻¹ | kon [1]: 357000 M⁻¹ s⁻¹

B19: 103C11E8, chimeric anti-PCSK9 mAb purified from hybridoma (antibody, V domains shown)
VH: QVQLQESGPGLVKPSGTLSLTCAVSGGSISSSNWWSWVRQPPGKGLEWIGEIYHSGSTNYNPSLKSRVTISVDKSKNQFSLKLSSVTAADTAVYYCARGIAVAGTDVMDAWGQGASVTVSS
VL: EIVLTQSPATLSLSPGERATLSCRASQSVSSYLVWYQQKSGQAPRLLIYGTSNRATGIPARFSGSGSGTDFTLTISSLEPEDFALYYCQQRGNWMYTFGQGTKLEIK
notes: From Harbour H2L2 mice: human variable regions, rat constant regions
OD450 nm (PCSK9 bound to LDLR) [2]: 0.87 OD450 nm | OD450 nm (PCSK9 bound to LDLR) [3]: 0.96 OD450 nm | OD450 nm [4]: 0.15 OD450 nm | OD450 nm [5]: 2.72 OD450 nm | OD450 nm [6]: 2.71 OD450 nm | OD450 nm [7]: 2.41 OD450 nm | OD450 nm (PCSK9 bound to LDLR) [8]: 0.54 OD450 nm | OD450 nm (PCSK9 bound to LDLR) [9]: 0.77 OD450 nm | OD450 nm (PCSK9 bound to LDLR) [10]: 0.92 OD450 nm | OD450 nm [11]: 0.68 OD450 nm | OD450 nm (PCSK9 bound to LDLR) [12]: 0.97 OD450 nm | OD450 nm [13]: 0.14 OD450 nm | OD450 nm [14]: 0.11 OD450 nm | OD450 nm [15]: 0.21 OD450 nm

The remaining lines, values ahead:

Kd [1]: 306 pM | koff [1]: 0.000164 s⁻¹ | kon [1]: 534000 M⁻¹ s⁻¹
B2: AF-mab023_14 (antibody, V domains shown)
VH: B1 VH with G106A, I107D, S109G
VL: not shown

Kd [1]: 381 pM | koff [1]: 0.000182 s⁻¹ | kon [1]: 477000 M⁻¹ s⁻¹
B5: AF-mab023_15 (antibody, V domains shown)
VH: B1 VH with G106Q, I107D, S109N
VL: not shown

Kd [1]: 1550 pM | koff [1]: 0.000351 s⁻¹ | kon [1]: 226000 M⁻¹ s⁻¹
B6: AF-mab023_19 (antibody, V domains shown)
VH: B1 VH with G106A, I107S, S109K
VL: not shown

Kd [1]: 176 pM | koff [1]: 8.47e-05 s⁻¹ | kon [1]: 480000 M⁻¹ s⁻¹
B7: AF-mab023_12 (antibody, V domains shown)
VH: B1 VH with G106T, I107E, S109G
VL: not shown

Kd [1]: 310 pM | koff [1]: 0.000109 s⁻¹ | kon [1]: 351000 M⁻¹ s⁻¹
B8: AF-mab023_17 (antibody, V domains shown)
VH: B1 VH with Y105T, I107M, S109E
VL: not shown

Kd [1]: 447 pM | koff [1]: 0.000143 s⁻¹ | kon [1]: 319000 M⁻¹ s⁻¹
B11: AF-mab023_16 (antibody, V domains shown)
VH: B1 VH with G106Q, I107D, S109K
VL: not shown

Kd [1]: 292 pM | koff [1]: 0.000161 s⁻¹ | kon [1]: 551000 M⁻¹ s⁻¹
B13: AF-mab023_18 (antibody, V domains shown)
VH: B1 VH with G106A, I107D, S109D
VL: not shown

Kd [1]: 392 pM | koff [1]: 0.000178 s⁻¹ | kon [1]: 455000 M⁻¹ s⁻¹
B14: AF-mab023_13 (antibody, V domains shown)
VH: B1 VH with G106T, I107E
VL: not shown
